Results: paper PMC5028032, “Linkage between Fitness of Yeast Cells and Adenylate Kinase Catalysis” (PLoS ONE, 2016)

How the values were obtained:
purified protein [1] = substrate: Nc1ncnc2c1ncn2[C@@H]1O[C@H](COP(=O)(O)OP(=O)(O)OP(=O)(O)O)[C@@H](O)[C@H]1O; test: purified protein; settings: 300 μM AMP constant, 2 mM MgCl2, 80 mM KCl, 100 mM Tris pH 7.5, 20°C
purified protein [2] = substrate: Nc1ncnc2c1ncn2[C@@H]1O[C@H](COP(=O)(O)OP(=O)(O)OP(=O)(O)O)[C@@H](O)[C@H]1O; test: purified protein; assay type: biochemical, Saccharomyces cerevisiae; settings: 300 μM AMP constant, 2 mM MgCl2, 80 mM KCl, 100 mM Tris pH 7.5, 20°C
[3] = 11 residues STGDMLSAAVK inserted between Lys40 and Ser41

| Protein | Km (purified protein [1]) [µM] | kcat (purified protein [1]) [s⁻¹] | kcat/Km (purified protein [1]) [M⁻¹ s⁻¹] | further results |
| --- | --- | --- | --- | --- |
| Adkeco (Escherichia coli K-12; INS40STGDMLSAAVK/R36S) (protein) MRIILLGAPGAGKGTQAQFIMEKYGIPQISTGDMLSAAVKSTGDMLSAAVKSGSELGKQAKDIMDAGKLVTDELVIALVKERIAQEDCRNGFLLDGFPRTIPQADAMKEAGINVDYVLEFDVPDELIVDRIVGRRVHAPSGRVYHVKFNPPKVEGKDDVTGEELTTRKDDQEETVRKRLVEYHQMTAPLIGYYSKEAEAGNTKYAKVDGTKPVAEVRADLEKILG | – | – | – | Km (purified protein [1]; [3]): 127 ± 30 µM; kcat (purified protein [1]; [3]): 2 s⁻¹; kcat/Km (purified protein [1]; [3]): 20000 M⁻¹ s⁻¹ |
| Adk1yeast (Saccharomyces cerevisiae S288C) (protein, full-length wild type, recombinant, 15N-enriched, purified as previously described) SSESIRMVLIGPPGAGKGTQAPNLQERFHAAHLATGDMLRSQIAKGTQLGLEAKKIMDQGGLVSDDIMVNMIKDELTNNPACKNGFILDGFPRTIPQAEKLDQMLKEQGTPLEKAIELKVDDELLVARITGRLIHPASGRSYHKIFNPPKEDMKDDVTGEALVQRSDDNADALKKRLAAYHAQTEPIVDFYKKTGIWAGVDASQPPATVWADILNKLGKD | – | – | – | Km (purified protein [2]): 71 ± 18 µM; kcat (purified protein [2]): 520 ± 32 s⁻¹; kcat/Km (purified protein [2]): 7.29e+06 ± 470000 M⁻¹ s⁻¹ |
| Adkeco (Escherichia coli K-12; G56C) (protein) MRIILLGAPGAGKGTQAQFIMEKYGIPQISTGDMLRAAVKSGSELGKQAKDIMDACKLVTDELVIALVKERIAQEDCRNGFLLDGFPRTIPQADAMKEAGINVDYVLEFDVPDELIVDRIVGRRVHAPSGRVYHVKFNPPKVEGKDDVTGEELTTRKDDQEETVRKRLVEYHQMTAPLIGYYSKEAEAGNTKYAKVDGTKPVAEVRADLEKILG | 34 ± 2 | 36 | 1.04e+06 | – |
| Adkeco (Escherichia coli K-12; R36A) (protein) MRIILLGAPGAGKGTQAQFIMEKYGIPQISTGDMLAAAVKSGSELGKQAKDIMDAGKLVTDELVIALVKERIAQEDCRNGFLLDGFPRTIPQADAMKEAGINVDYVLEFDVPDELIVDRIVGRRVHAPSGRVYHVKFNPPKVEGKDDVTGEELTTRKDDQEETVRKRLVEYHQMTAPLIGYYSKEAEAGNTKYAKVDGTKPVAEVRADLEKILG | 193 ± 7 | 19 | 100000 | – |
